Data on 11 molecules can be found in paper PMC4813576, “Mit1 Transcription Factor Mediates Methanol Signaling and Regulates the Alcohol Oxidase 1 (AOX1) Promoter in Pichia pastoris*”.

Series [1] addresses T1, Mit1 ZF domain (Pichia pastoris (Komagataella pastoris)) (UniProt C4R5Q1).
T1 sequence: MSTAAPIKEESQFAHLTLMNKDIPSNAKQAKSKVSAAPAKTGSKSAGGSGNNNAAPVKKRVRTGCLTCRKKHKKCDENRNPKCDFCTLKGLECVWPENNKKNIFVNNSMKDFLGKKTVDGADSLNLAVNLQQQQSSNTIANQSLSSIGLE
The experiment in a line: EMSA. To be noted: EMSA: 50 mM Tris-HCl pH 8.0, 50 mM NaCl, 1 mM DTT, 0.05% NP-40, 50 ug/ml poly[d(I-C)], 5% glycerol, 30 min at 4 C; about 30 nM probe, 0-1 uM protein. …. (In general: A gel shift assay detects complexes by their altered migration in electrophoresis.)

The target of series [2] is T2, Prm1 ZF domain (Pichia pastoris (Komagataella pastoris)) (UniProt C4R754).
T2 sequence: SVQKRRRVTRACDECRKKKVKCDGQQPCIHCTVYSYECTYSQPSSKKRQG
The series can be described thus: EMSA. To be noted: EMSA: 50 mM Tris-HCl pH 8.0, 50 mM NaCl, 1 mM DTT, 0.05% NP-40, 50 ug/ml poly[d(I-C)], 5% glycerol, 30 min at 4 C; about 30 nM probe, 0-1 uM protein. ….

For a further series, the target named is T3, Mit1 ZF domain (Pichia pastoris (Komagataella pastoris), UniProt C4R5Q1 1-150).
T3 sequence: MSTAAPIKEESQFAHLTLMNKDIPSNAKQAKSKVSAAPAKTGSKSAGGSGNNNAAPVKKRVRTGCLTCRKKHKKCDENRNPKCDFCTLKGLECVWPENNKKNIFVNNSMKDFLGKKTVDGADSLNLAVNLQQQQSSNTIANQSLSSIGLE
The experiment in a line: EMSA; EMSA: 50 mM Tris-HCl pH 8.0, 50 mM NaCl, 1 mM DTT, 0.05% NP-40, 50 ug/ml poly[d(I-C)], 5% glycerol, 30 min at 4 C; about 30 nM probe, 0-1 uM protein. Footprinting: 350 ng probe in 40 ul, 30 min at 25 C. The settings on record: protein: recombinant; tags: His6; label: Cy5.

The next series concerns the target T4, Prm1 ZF domain (Pichia pastoris (Komagataella pastoris), UniProt C4R754 41-90).
T4 chain: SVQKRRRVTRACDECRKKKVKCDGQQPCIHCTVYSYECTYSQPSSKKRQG
The description is as above. To be noted: protein: recombinant; tags: His6; label: Cy5.

As for “TTGCTGTCAAGTAGGGGTTAGAACAGTTAAATTTTGATCATGAACGTTAGGCTATCAGCAGTATTCCCACCAGAATCTTGGAAGCATACAATGTGGAGACAATGCATAATCATCCAAAAAGCGGGTGTTTCCCCATTTGCGTTTCGGCACAGGTGCACCGGGGTTCAGAAGCGATAGAGAGACTGCGCTAAGCATTAATGAGATTATTTTTGAGCATTCGTCAAT (double strand) [PAOX1 W4]”, the binding entry is given as “no binding” in series [1] and “binds” in series [2].

Consider “ACAGAATCTGGAGGTGTAAACACCGTCATTCCCTAATCTAAGTTTCTGTCCAGCCGTTTAGAAAGTTCCTCTTCGTCAATAAAGTTTAACTTTGAACGTGAGAGTTGAGCTAATCGGAAATACTCCCGAGAGCACACCCGAGCAGTGAAGCGGGGCATCATCAAAAGAATTAAGGGGTGCTGGGTGCGGATTGCGCGCAGTAGCTGGCATCAATGCCAAACGTAGAACTCATACATTCTCCTATCAGAATCATACGACATCGAGAGATACACCAGCCAGCACCACTTGAACACTCCCAAT (double strand) [PMIT1-A]”, for which the binding result in series [2] is on record as “binds”.

“ATTTTTGAGCATTCGTCAATCAATACCAAACAAGACAAACGGTATGCCGACTTTTGGAAGTTTCTTTTTGACCAACTGGCCGTTAGCATTTCAACGAACCAAACTTAGTTCATCTTGGATGAGATCACGCTTTTGTCATATTAGGTTCCAAGACAGCGTTTAAACTGT (double strand) [PAOX1 W3]”: the binding entry in series [1] and in series [2] was “binds” each time.

Consider “GTTCTTCCCGTTCCGCTCTATCCGATAAGAGGTTGGCTTCCGAGAAGGTTGGTAGTTGGAATGACGTACAAAATGTACAACAAAGCAGATGTTGTTTAGCGCGATCGCCCCAACCCCTCTTGTTGTTAGACAGTCTTATGCATATTTCGTAGACCCGGGACTGTACATTCGTCCGTCCTCAACCATTGGTCATTTGGTAC (double strand) [PMIT1-D]”, for which the binding entry in series [2] is recorded as “binds”.

“CAATTCCTTCTATTAGGCTACTAACACCATGACTTTATTAGCCTGTCTATCCTGGCCCCCCTGGCGAGGTTCATGTTTGTTTATTTCCGAATGCAACAAGCTCCGCATTACACCCGAACATCACTCCAGATGAGGGCTTTCTGAGTGTGGGGTCAAATAGTTTCATGTTCCCCAAATGGCCCAAAACTGACAGTTTAAACGCTGTCTTG (double strand) [PAOX1 W2]”: the binding result is given as “binds” in series [1] and “no binding” in series [2].

Take “GATAGCACTCTGGATTGATCAGAAACTTCATATCCGGAGACAGATACTTGTCTGTCTTGCATATGGGGCAATATTCTTCAGTATCCATCCGATGATTACGATTAGTATTAGGTTGATGAATAATCCATAATGGTCCCCTGATGGAATATGCTCGCGAAGA (double strand) [PPRM1-A]”: the binding entry in series [2] is reported as “binds”.

B1: W2 delta A delta B (dsDNA)
DNA 1: CAATTCATGACTTCTGGCCCCCCTGGCGAGGTTCATGTTTGTTTATTTCCGAATGCAACAAGCTCCGCATTACACCCGAACATCACTCCAGATGAGGGCTTTCTGAGTGTGGGGTCAAATAGTTTCATGTTCCCCAAATGGCCCAAAACTGACAGTTTAAACGCTGTCTTG
DNA 2: CAAGACAGCGTTTAAACTGTCAGTTTTGGGCCATTTGGGGAACATGAAACTATTTGACCCCACACTCAGAAAGCCCTCATCTGGAGTGATGTTCGGGTGTAATGCGGAGCTTGTTGCATTCGGAAATAAACAAACATGAACCTCGCCAGGGGGGCCAGAAGTCATGAATTG
Take B1: the binding result in the series with Mit1 ZF domain is listed as “no binding”.

B2: W2 delta B (dsDNA)
DNA 1: CAATTCCTTCTATTAGGCTACTAACACCATGACTTCTGGCCCCCCTGGCGAGGTTCATGTTTGTTTATTTCCGAATGCAACAAGCTCCGCATTACACCCGAACATCACTCCAGATGAGGGCTTTCTGAGTGTGGGGTCAAATAGTTTCATGTTCCCCAAATGGCCCAAAACTGACAGTTTAAACGCTGTCTTG
DNA 2: CAAGACAGCGTTTAAACTGTCAGTTTTGGGCCATTTGGGGAACATGAAACTATTTGACCCCACACTCAGAAAGCCCTCATCTGGAGTGATGTTCGGGTGTAATGCGGAGCTTGTTGCATTCGGAAATAAACAAACATGAACCTCGCCAGGGGGGCCAGAAGTCATGGTGTTAGTAGCCTAATAGAAGGAATTG
As for B2, in the series with Mit1 ZF domain, the binding result was “binds”.

B3: W2 delta A (dsDNA)
DNA 1: CAATTCATGACTTTATTAGCCTGTCTATCCTGGCCCCCCTGGCGAGGTTCATGTTTGTTTATTTCCGAATGCAACAAGCTCCGCATTACACCCGAACATCACTCCAGATGAGGGCTTTCTGAGTGTGGGGTCAAATAGTTTCATGTTCCCCAAATGGCCCAAAACTGACAGTTTAAACGCTGTCTTG
DNA 2: CAAGACAGCGTTTAAACTGTCAGTTTTGGGCCATTTGGGGAACATGAAACTATTTGACCCCACACTCAGAAAGCCCTCATCTGGAGTGATGTTCGGGTGTAATGCGGAGCTTGTTGCATTCGGAAATAAACAAACATGAACCTCGCCAGGGGGGCCAGGATAGACAGGCTAATAAAGTCATGAATTG
For the molecule B3, the binding result with Mit1 ZF domain is reported as “binds”.

B4: W3 delta D (dsDNA)
DNA 1: ACAGTTTAAACGCTGTCTTGGAACCTAATATGACAAAAGCGTGATCTCATCCAAGATGAACTAAGTTTGGTTCGTTGAAATGCTAACGGCCAGTTGGTCAAAAAGAAACTTCCGAATGCTCAAAAAT
DNA 2: ATTTTTGAGCATTCGGAAGTTTCTTTTTGACCAACTGGCCGTTAGCATTTCAACGAACCAAACTTAGTTCATCTTGGATGAGATCACGCTTTTGTCATATTAGGTTCCAAGACAGCGTTTAAACTGT
Turning to B4, the binding result with Mit1 ZF domain is listed as “binds”; in the series with Prm1 ZF domain, “no binding”.

B5: W3 delta B delta C (dsDNA)
DNA 1: ACAGTTTAAACGCTGTCTTGGAACCTAATATGACAAAAGCGTGACAAGATGAACTAAGTTTGGTTCGTTGAAATGGCCAGTTGGTCAAAAAGAAACTTCCAAAAGTCGGCATACCGTTTGTCTTGTTTGGTATTGATTGACGAATGCTCAAAAAT
DNA 2: ATTTTTGAGCATTCGTCAATCAATACCAAACAAGACAAACGGTATGCCGACTTTTGGAAGTTTCTTTTTGACCAACTGGCCATTTCAACGAACCAAACTTAGTTCATCTTGTCACGCTTTTGTCATATTAGGTTCCAAGACAGCGTTTAAACTGT
With B5, the binding result in the series with Mit1 ZF domain is “binds”.
